The target in the assay is α-NAC subunit of C. elegans NAC (C. elegans). Description: cross-linking; BS3 (d0/d4) at 20- or 50-fold molar excess, 20 uM NAC alone or + 20 uM substrate, 10 mM sodium phosphate pH 7.0, room temperature 1 h; SDS-PAGE, in-gel tryptic digest, LC-MS/MS.

Among the data in article PMC5986199 are stoichiometry N values, retold here.

B1: β-NAC subunit of C. elegans NAC (natural protein)
chain: MDSKAIAERIKKLQAQQEHVRIGGKGTPRRKKKVIHKTAAADDKKLQSNLKKLSVTNIPGIEEVNMIKDDGTVIHFNNPKVQTSVPANTFSVTGSADNKQITEMLPGILNQLGPESLTHLKKLANNVTKLGPDGKGEDEDVPELVGDFDAASKNETKADEQ
For the molecule B1, the stoichiometry N turned out to be 1.

As usually defined, the stoichiometry N is the number of molecules, sites or subunits per partner or assembly.
